Reference: US20190381150

T1: bovine fetuin, P12763
T1 chain: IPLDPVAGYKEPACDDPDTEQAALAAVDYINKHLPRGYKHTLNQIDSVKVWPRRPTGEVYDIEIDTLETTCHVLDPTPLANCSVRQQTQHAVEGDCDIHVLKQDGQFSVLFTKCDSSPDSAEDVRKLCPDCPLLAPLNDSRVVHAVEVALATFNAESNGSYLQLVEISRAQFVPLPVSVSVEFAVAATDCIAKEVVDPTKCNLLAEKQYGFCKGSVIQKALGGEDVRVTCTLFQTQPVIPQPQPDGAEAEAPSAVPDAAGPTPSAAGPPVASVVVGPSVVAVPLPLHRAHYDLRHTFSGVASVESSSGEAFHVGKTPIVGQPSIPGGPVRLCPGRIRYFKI

T2: Bovine ribonuclease B (ribonuclease B from bovine pancreas, Sigma-Aldrich), P61823
T2 chain: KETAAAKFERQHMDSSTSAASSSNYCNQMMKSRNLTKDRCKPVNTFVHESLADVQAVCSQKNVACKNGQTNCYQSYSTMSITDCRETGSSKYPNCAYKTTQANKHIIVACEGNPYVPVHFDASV


Columns and labels:
[1] = target: Bovine lactoferrin (lactoferrin from bovine milk, Sigma), P24627
[2] = target: Human lactoferrin (lactoferrin from human milk, Sigma), P02788
bovine fetuin, P12763 = target: T1, bovine fetuin, P12763
[3] = target: T2, Bovine ribonuclease B (ribonuclease B …)

Chain of Bovine lactoferrin (lactoferrin from bovine milk, Sigma), P24627 (P24627 20-708): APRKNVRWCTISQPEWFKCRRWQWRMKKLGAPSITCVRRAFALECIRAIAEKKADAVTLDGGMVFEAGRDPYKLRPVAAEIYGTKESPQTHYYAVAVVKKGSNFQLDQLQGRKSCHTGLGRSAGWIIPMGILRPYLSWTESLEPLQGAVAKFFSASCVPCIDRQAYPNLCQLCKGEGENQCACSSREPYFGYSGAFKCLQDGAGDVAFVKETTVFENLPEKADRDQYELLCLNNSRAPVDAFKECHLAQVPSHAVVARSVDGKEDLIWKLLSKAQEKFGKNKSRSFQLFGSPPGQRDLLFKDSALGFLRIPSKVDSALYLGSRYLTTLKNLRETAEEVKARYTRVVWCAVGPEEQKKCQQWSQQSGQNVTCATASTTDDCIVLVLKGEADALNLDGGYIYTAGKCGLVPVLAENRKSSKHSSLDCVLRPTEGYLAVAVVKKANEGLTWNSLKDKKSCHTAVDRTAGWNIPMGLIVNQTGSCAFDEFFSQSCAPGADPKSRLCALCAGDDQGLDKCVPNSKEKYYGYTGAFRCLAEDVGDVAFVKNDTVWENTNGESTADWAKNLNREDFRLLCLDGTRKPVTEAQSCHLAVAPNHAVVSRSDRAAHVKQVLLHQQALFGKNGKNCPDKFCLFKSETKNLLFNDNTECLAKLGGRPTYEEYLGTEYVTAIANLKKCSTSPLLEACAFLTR
Chain of Human lactoferrin (lactoferrin from human milk, Sigma), P02788 (P02788 20-710): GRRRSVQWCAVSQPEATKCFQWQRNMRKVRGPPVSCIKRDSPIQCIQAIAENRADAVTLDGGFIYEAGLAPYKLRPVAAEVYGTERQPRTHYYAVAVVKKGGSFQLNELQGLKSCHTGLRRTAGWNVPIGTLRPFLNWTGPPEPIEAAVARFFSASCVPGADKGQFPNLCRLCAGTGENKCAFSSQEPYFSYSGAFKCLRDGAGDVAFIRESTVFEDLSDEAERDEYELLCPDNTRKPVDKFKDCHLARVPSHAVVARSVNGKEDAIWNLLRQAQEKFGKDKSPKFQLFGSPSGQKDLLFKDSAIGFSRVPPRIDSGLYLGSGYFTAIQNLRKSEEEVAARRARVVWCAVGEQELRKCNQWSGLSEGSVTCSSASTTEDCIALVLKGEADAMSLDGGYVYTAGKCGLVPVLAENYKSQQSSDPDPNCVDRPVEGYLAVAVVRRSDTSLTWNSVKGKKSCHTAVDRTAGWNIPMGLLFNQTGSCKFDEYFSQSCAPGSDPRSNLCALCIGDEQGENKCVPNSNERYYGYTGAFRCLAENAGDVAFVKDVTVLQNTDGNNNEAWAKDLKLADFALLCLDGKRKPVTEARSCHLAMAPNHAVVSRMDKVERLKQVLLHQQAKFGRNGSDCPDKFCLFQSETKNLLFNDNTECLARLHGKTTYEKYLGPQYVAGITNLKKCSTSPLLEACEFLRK

| Protein | deglycosylation, change in MW on SDS-PAGE after overnight incubation [1] | deglycosylation, SDS-PAGE after overnight incubation [2] | release of N-glycans (bovine fetuin, P12763) | shift in molecular weight on SDS-PAGE of human milk after overnight incubation [2] | deglycosylation (cleavage of high mannose glycans) [1] | deglycosylation (cleavage of high mannose glycans) [3] | deglycosylation (cleavage of high mannose glycans) [2] |
| --- | --- | --- | --- | --- | --- | --- | --- |
| EndoBI-2 (endo-β-N-acetylglucosaminidase from B. infantis SC142), recombinant, signal peptide and transmembrane domains omitted (protein) VANAQEGDSPVAASQEGNGNKHFMVYYRAWRDVTMKGVNTDLPDDNWISMYDIPYGIDVVNVFSYVPSGQEAAAQPFYDKLKSDYAPYLHARGVKLVRGLDYSGVMVDGFKTWIAQQGKNVDSATESDYDAYADHVIETYMTSVGLDGLDIDMETFPDAAQVAISDQVITALAKRIGPKSDNPEGTMFLYDTNGSYTAPFKNVSDCFDYVAYQQYGSDSNRTAKAAATYEQFIDSTKFVPGLTFPEEGDMNNRWNDATEPYLDSHFYDVASYSYDHNLGGMFVYALDRDGRTYSDDDLAHIKPSNLIWTKTAIAQSQGMSLENAKQAANHFLDRMSYTKDVPAETRQTVAAATNLYEVNKAVLGADWNDGYSNTYDPTLELSLASIDTTALTGAIAKADALLADGATDTDVRTTLTTARNAA | all of them were able to cleave bLF, as observed by discrete changes in MW on SDS-PAGE gels | EndoBI-1 and EndoBI-2 cleaved hLF |  |  |  |  |  |
| EndoBI-1 (endo-β-N-acetylglucosaminidase from B. infantis ATCC 15697, Blon_2468), recombinant, signal peptide and transmembrane domains omitted (protein) NADAVSPTQETIQSTGRHFMVYYRAWRDVTMKGVNTDLPDDNWISMYDIPYGVDVVNIFSYVPSGQEEQAQPFYDKLKSDYAPYLHSRGIKLVRGIDYTGVAVNGFRTFMKEQNKTESEATEADYDAYAKQVIDKYMISVGLDGLDIDMEAHPNDADVKISDNVIRALSKHIGPKSAKPDTTMFLYDTNGSYLNPFKNVAECFDYVAYQQYGSSSDRTARAAADYQPYIGNEFVPGLTFPEEGDMNNRWYDATEPYEESHFYQVASYVREHNLGGMFVYALDRDGRNYDEDLRRIVPSNLLWTKTAIAESEGMALDTAKTAANHYLDRMSLRQVIDDNAASADKARDMVGKAANLYETNKAVLGGDYGEGFSNTYDPTLEAGLLGIDISVLQQQIDKSSEIIGADTAESDAKTALRMARDAAIDGLTGKIYTADQVSAWSQALKAALDATVPVPTPDSTDQNGNRDKVTNHKVQGQPKQLSAT | all of them were able to cleave bLF, as observed by discrete changes in MW on SDS-PAGE gels | EndoBI-1 and EndoBI-2 cleaved hLF | releasing N-glycans from human IgA, IgG, RNase B and bovine fetuin | produced a shift in the molecular weight of primarily lactoferrin |  |  |  |
| EndoBB (GH85 endo-β-N-acetylglucosaminidase, BLD_0197 from B. longum DJO10A), recombinant, signal peptide and transmembrane domain omitted (protein) CSGGTSATKYTITPENENEELVLGNRPEASYWFPEDLLKWNADKDPNLAYNVSTVPLAKRVDKADLKPVNDTQNTDTKVMAISIMNSSTSGNAPHGLNTANANTFSYWQYVDELVYWGGSSGEGIIVPPSPDVTDMGHTNGVPVLGTVFFPQNVSGGKVEWLDQTLAQKSDGSFPVADKLIEVATTYGFDGWFINQETEGENETSLGADYATKMQAFIAYLKKQAPDLRVVYYDSMTKDGSIDWQNALTDENSMYMTDGDHPIADEMFLNFWWTEDKLAGDDLLAASATKAKELGIDPYSLYAGIDVQADGYDTPVKWNLFAGKDGKTHTSLGLYCPSWAYWSAGNPTTFRKNESRLWVNDEGNPSVSTPYEDDEKWTGVSNYVAEQSAVTSLPFVTNFNNGSGYSFFREGKQISKMDWNNRSVSDIQPTYRWIVADEGGNKTKADYSDADAWYGGSSLKFSGKVAKDGKTMVKLYSASVKTGAKPTLSIAAKANVDTDLKAVLTFADGSVETVNGKKKVGNDWGVIDYDIAKLSNKTLTGIDFTYQSSEDKTGYELLLGNITLKDGSEETELGKVTEVKVDDSEFDDDALYAGARISWKTDGKAPAYEIYQINEDKSRSFLGVSNVENFYANALTRVGETNNTTFEIVPVDRYGTQGTSAKADMDWPDNSKPKAGATASRTLLNVGDEVTFTSASSKNTAEVAWSLPGSSKEHATGKSVTVTYDKEGVYDVEITAKNKSGEATATLKGQIVVSADVMDLVLLSQGAQVSADGFTNGNEKPEFAVDGDVKTKWCVTGPAPHELVVDLGAPKTVSQVDISHAQAGGEDASMNTQEYAIEVSEDGTEYTQVALVKGNTEGATSNAFAPVNARYVKLVVNKPTQGSDTAARIYEMQVRGADGAIL | all of them were able to cleave bLF, as observed by discrete changes in MW on SDS-PAGE gels |  |  |  | cleaving RNAseB and bLF, but not hLF | cleaving RNAseB and bLF, but not hLF | cleaving RNAseB and bLF, but not hLF |
